{
  "source": "patent US11110182B2",
  "about": "“Multifunctional RNA nanoparticles and methods for treating cancer and therapeutic resistant cancer” (University of Cincinnati, priority 2016, dated 2021)",
  "tested_on": "BT474 orthotopic xenograft tumors",
  "test": "Anti-tumor therapy in BT474 orthotopic xenograft breast tumor mouse model",
  "type": "in vivo, athymic nude mice",
  "conditions": "for tumor lung metastasis: H&E staining of whole lung",
  "protocol": "FIG. 5A) BT474 orthotopic xenograft mouse models were treated with control pRNA-HER2apt-siScram or pRNA-HER2apt-siMED1 (4 mg/Kg) once a week, in combination with vehicle or tamoxifen (TAM, 0.5 mg/mice/day) 5 days per week. Tumor sizes were measured every three days. FIG. 5B) After three weeks, mice were i.p. injected with D-luciferin, and representative in vivo images of BT474 tumors were recorded using IVIS Lumina imaging system. FIG. 5C) Average weight of the tumors excised at the end of the treatment, and FIG. 5D) the representative photos of tumors. FIG. 5E and FIG. 5F) MED1 expression in the BT474 tumors was examined using IHC staining and FIG. 5G) immunoblotting. FIG. 5H) The expression of Ki-67 in tumor tissues was analyzed using IHC staining, and FIG. 5I) the percentage of Ki-67 positive cells was counted. Scale bar: 100 μm.\nFIG. 6A) Whole lung tissues were fixed, embedded, and sectioned for H&E staining, and FIG. 6B) metastasis foci in the whole lung tissues were then counted. Arrow indicates the metastasis foci. Scale bar: 100 μm. FIG. 6C) After digesting tumor tissues with trypsin and 0.1% collagenase, tumor cells were stained for CD44 and CD24, and FIG. 6D) analyzed for CD44^+CD24^−/low stem cell population using flow cytometry. FIG. 6E) Total RNA in the tumor tissues was extracted using TRIZOL reagent, and the expression of TFF-1, FIG. 6F) c-Myc, FIG. 6G) cyclin D1, and FIG. 6H) MMP-9 were determined by real-time PCR.\nMigration and metastasis assay. The 8-μm-pore-size polycarbonate membrane, which separates the two chambers of a 6.5-mm Transwell (Costar), was coated with or without 1:8 DMEM-diluted Matrigel (Corning). Transwell assay was performed as previously described.^57 Briefly, BT474 cells were treated with pRNAs alone or together with 4-hydroxy-tamoxifen (4-OHT) for 48 h and starved with serum-free DMEM containing 0.2% BSA overnight. On the next day, cells were collected and 2×10^5 cells were seeded to the upper chamber of Transwell. The lower chamber was filled with 600 μL DMEM medium containing 10% FBS. After incubation at 37° C. for 24 h, cells on the membranes were fixed and stained with 0.1% crystal violet in 20% ethanol solution. Cells at top side of membranes were removed completely, and cells at the bottom side were examined with an Olympus SZX12 microscope and counted. • Mammosphere culture and breast cancer stem cell analyses. BT474 cells were treated with pRNAs for 48 h. Then, cells were suspended in DMEM/F12 medium supplemented with 1×B27 (Thermo Fisher), 20 ng/mL bFGF and 20 ng/mL EGF (R&D), and added into 24-well ultralow attachment plates. After treatment with or without 1 μM 4-OHT for 7 days, mammosphere formation was recorded using an Axiovert S100 TV inverted microscope (Zeiss). Xenograft tumor tissues were cut into small pieces and digested with trypsin and collagenase at 37° C. for 1 h, and tumor cells were collected and rinsed with pre-cold PBS. All cells were stained with FITC-conjugated anti-CD44 antibody and PE-conjugated anti-CD24 antibody (BD Pharmingen) in the dark on ice for 30 min. After resuspension with 0.5 mL PBS buffer, CD44^+/CD24^−/low cell population was analyzed by flow cytometry. • Orthotopic xenograft breast tumor mouse model, in vivo imaging and anti-tumor therapy. Six-week-old female athymic nude mice were purchased from Charles River Laboratories, and all animal procedures were performed under IACUC-approved protocols at the University of Cincinnati. Athymic nude mice were orthotopically injected with 1×10^7 BT474-luc cells mixed with matrigel into the fat pads of the forth pair of mammary glands. When the tumor sizes reached 100-150 mm^3, the mice were randomly divided into four groups (4/group) and intravenously (i.v.) injected with pRNAs (4 mg/Kg) once a week for three weeks. For tamoxifen treatments, 0.5 mg tamoxifen (Sigma) dissolved in sesame oil was intraperitoneally (i.p.) injected into mice 5 days a week for three weeks. […]",
  "data": [
    {"molecule": "pRNA-HER2apt-siMED1: 3-WJ pRNA nanoparticle bearing a HER2-targeting RNA aptamer and two different MED1 siRNAs; strands p1 SEQ ID NO: 3, p2 SEQ ID NO: 4 (nucleic acid, 2'-F modification; third strand may lack entry; pRNA-HER2apt-siMED1, p1; pRNA-HER2apt-siMED1, p2) chain 1: GGACAGUGAAAGUGAGUCAAAGGAUCAAUCAUGGCCAAAGAUGUUACUUUGAGAGCCUU chain 2: GGCUCUCAAAGUAACAUCUAAGGCCAUGUGUAUGUGGGGGGAGGACGAUGCGGUCUGCUGUGCUUGAUAUGCCCCAGACGACUCGCCCCCCACAUACUUUGUUGAUCCAAUGACUCACUUUCACUGUCCUU", "values": [
      {"measurement": "Ki-67 expression in tumor sections", "setting": "IHC staining", "value": "dramatic reduction"},
      {"measurement": "expression of MED1 in tumors", "setting": "IHC staining and western blot of BT474 tumors", "value": "significantly depleted"},
      {"measurement": "CD44^+CD24^−/low cancer stem cells in breast tumors", "setting": "combined with tamoxifen, flow cytometry", "value": "almost complete depletion"},
      {"measurement": "tumor lung metastasis", "setting": "in combination with tamoxifen", "value": "totally eradicated"},
      {"measurement": "tumor growth", "setting": "pRNA 4 mg/Kg i.v. once a week in combination with tamoxifen 0.5 mg i.p. 5 days a week, three weeks", "value": "almost completely suppressed tumor growth"},
      {"measurement": "tumor burden", "setting": "pRNA alone, 4 mg/Kg i.v. once a week, three weeks", "value": "reduced tumor burden"},
      {"measurement": "CD44^+CD24^−/low cancer stem cells in the breast tumors", "setting": "pRNA alone, flow cytometry", "value": "significantly reduced"},
      {"measurement": "tumor lung metastasis", "setting": "single agent", "value": "totally eradicated"},
      {"measurement": "tumor growth", "setting": "single agent, pRNA 4 mg/Kg i.v. once a week or tamoxifen 0.5 mg i.p. 5 days a week, three weeks", "value": "significantly inhibited tumor growth"}
    ]}
  ]
}
